Targets include DdahB (C. jejuni); MlghC (C. jejuni); DdahC (C. jejuni); MlghB (C. jejuni).
Common to all, as to test: SEC-MALS; size-exclusion chromatography (Superdex 200) in 10-mM Tris, pH 7.5, 150-mM NaCl with Dawn Heleos II light scattering and Optilab T-rEX dRI detectors

We go through 4 substances from publication PMC7949155.

The term stoichiometry N denotes the number of molecules, sites or subunits per partner or assembly. Turning to DdahB (enzyme), the stoichiometry N with DdahB (C. jejuni) turned out to be 2.

As to MlghC (enzyme), the stoichiometry N with MlghC (C. jejuni) was determined as 2.

As for DdahC (enzyme), the stoichiometry N in the test with DdahC (C. jejuni) was 2.

On to MlghB (enzyme), for which the stoichiometry N in the test with MlghB (C. jejuni) stood at 2.
